Columns and labels:
[1] = target: CR pairs of the second ligand-binding domain of human LRP1; conditions: all pairs except CR9-CR10; read-out: affinity of adjacent CR pairs for RAP d3; cited from earlier work
[2] = target: LRP1 CR3-5 (Homo sapiens, UniProt Q07954); test: Binding of RAP d3 / MegaRAP1 d3 variants to LRP1 CR3-5; conditions: in words
Text: FIG. 1A-B depict binding of RAP d3, MegaRAP1 d3 (RAPv2A d3) and intermediate sequence variants to LRP2 CR89 and LRP1 CR3-5. FIG. 1A illustrates binding of RAP d3 mutants and RAPv2A d3 revertants to LRP2 CR89. FIG. 1B illustrates binding of RAP d3 mutants and RAPv2A d3 revertants to LRP1 CR3-5. Data were plotted and fitted by non-linear regression with the assumption of a single binding site (GraphPad Prism). Kd values with standard deviations were derived from the regression analysis.
Percent of maximum binding is the ratio of the OD at the highest concentration tested for each ligand and the highest OD measured for all such ligands at that concentration.

Sequence of LRP1 CR3-5 (Q07954 852-973 limits assumed): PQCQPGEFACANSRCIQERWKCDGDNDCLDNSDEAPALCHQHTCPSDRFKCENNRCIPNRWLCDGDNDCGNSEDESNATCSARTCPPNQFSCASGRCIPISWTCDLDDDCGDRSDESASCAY

| binding to LRP1 CR domains [2] | Molecule | Kd [1] [nM] |
| --- | --- | --- |
| – | RAP d3: third domain (d3) of receptor-associated protein, amino acids 200-323 of mature RAP; row 'RAP' of Table 2 (protein, listed as Homo sapiens) LDRLRRVSHQGYSTEAEFEEPRVIDLWDLAQSANLTDKELEAFREELKHFEAKIEKHNHYQKQLEIAHEKLRHAESVGDGERVSRSREKHALLEGRTKELGYTVKKHLQDLSGRISRARHNEL | 1 to 5 |
| fails to bind LRP1 CR domains | MegaRAP1: RAPd3 variant; Table 2 positions 213 T, 217 K, 249 Y, 251 K, 256 A, 270 E (protein) GLDRLRRVSHQGYTTEAKFEEPRVIDLWDLAQSANLTDKELEAFREELKYFKAKIEAHNHYQKQLEIAHEELRHAESVGDGERVSRSREKHALLEGRTKELGYTVKKHLQDLSGRISRARHNEL | – |
